Read-outs that look alike come from different tables or passages of the source. Starred links: 1 amine or outer side, 2 acyl side, 3 side chain; linkers in the order of their positions; H or OH if unused. Positions of bridges follow the written chain, without caps; N, C: chain ends. Non-standard residues stand in square brackets, D forms with d. Residues, ends and D or L forms follow the SMILES beside them. Groups on a side chain read outwards from the residue. Primed or numbered codes have the meaning given here. *: point of attachment. (2S,3S)beta‑Me‑Phe = C[C@@H](c1ccccc1)[C@H](N[*:1])C(=O)[*:2]; (2S,3S)βMePhe = C[C@@H](c1ccccc1)[C@H](N[*:1])C(=O)[*:2]; DOTA = O=C(O)CN1CCN(CC(=O)O)CCN(CC(=O)*)CCN(CC(=O)O)CC1; PipAla = piperidinyl-alanine residue (as named); Trp(5-F) = N[C@@H](Cc1c[nH]c2ccc(F)cc12)C(=O)O; PEG4′ = 4x 3-(2-aminoethoxy)propanoic acid; γGlu = O=C(O)[C@H](CCC(=O)[*:2])N[*:1]; Ala(4-THP) = N[C@@H](CC1CCOCC1)C(=O)O; Val(3-OH) = CC(C)(O)[C@H](N)C(=O)O; Hyp = O=C(O)[C@@H]1C[C@@H](O)CN1; 4Pal = N[C@@H](Cc1ccncc1)C(=O)O; Tle = CC(C)(C)[C@H](N)C(=O)O; hLeu = CC(C)CC[C@H](N)C(=O)O; Pip = O=C(O)[C@@H]1CCCCN1; Nle = CCCC[C@H](N)C(=O)O
Key:
human 4lg B7-H3 = target: T1, human 4lg B7-H3 (Homo sapiens, UniProt Q5ZPR3); test: Affinity determination by surface plasmon resonance (SPR) to 4Ig B7-H3; conditions: 4Ig B7-H3
T1 sequence (Q5ZPR3 29-534): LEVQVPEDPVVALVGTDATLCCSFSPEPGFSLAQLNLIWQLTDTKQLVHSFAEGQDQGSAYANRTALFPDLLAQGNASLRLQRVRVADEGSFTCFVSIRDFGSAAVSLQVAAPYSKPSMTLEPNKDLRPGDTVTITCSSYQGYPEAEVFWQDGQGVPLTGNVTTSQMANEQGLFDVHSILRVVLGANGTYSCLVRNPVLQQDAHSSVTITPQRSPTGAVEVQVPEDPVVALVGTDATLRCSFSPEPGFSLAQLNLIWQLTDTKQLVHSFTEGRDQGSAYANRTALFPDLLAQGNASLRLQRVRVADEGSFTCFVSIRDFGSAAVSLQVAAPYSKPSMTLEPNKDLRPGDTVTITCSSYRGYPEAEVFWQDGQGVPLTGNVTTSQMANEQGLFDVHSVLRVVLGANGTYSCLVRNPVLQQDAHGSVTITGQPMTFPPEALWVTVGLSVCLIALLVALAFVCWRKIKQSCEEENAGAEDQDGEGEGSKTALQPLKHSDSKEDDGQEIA

Calu-6 cell line [1] = test: Net internalization of [177Lu]Lu-labeled peptide in Calu-6 cells; format: cell-based, Human; conditions: 1 hour, 37° C., glycine pH 2.5 acid wash
In short: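 Calu-6 cells, human non-engineered lung cancer expressing B7-H3, resuspended in 1% PBSA at 5 million cells/mL and incubated with the 177Lu-labeled conjugate (labeled at 80 °C, pH ~5, RP-HPLC checked). Gamma counting of the bound fraction, then of the pellet after two glycine pH 2.5 acid strips and NaOH lysis, gives internalized activity.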

4lg-B7-H3 = target: T2, 4lg-B7-H3 (Homo sapiens, UniProt Q5ZPR3, S143D); test: X-ray crystal structure of compound bound to 4lg-B7-H3
T2 sequence (Q5ZPR3 29-456 S143D): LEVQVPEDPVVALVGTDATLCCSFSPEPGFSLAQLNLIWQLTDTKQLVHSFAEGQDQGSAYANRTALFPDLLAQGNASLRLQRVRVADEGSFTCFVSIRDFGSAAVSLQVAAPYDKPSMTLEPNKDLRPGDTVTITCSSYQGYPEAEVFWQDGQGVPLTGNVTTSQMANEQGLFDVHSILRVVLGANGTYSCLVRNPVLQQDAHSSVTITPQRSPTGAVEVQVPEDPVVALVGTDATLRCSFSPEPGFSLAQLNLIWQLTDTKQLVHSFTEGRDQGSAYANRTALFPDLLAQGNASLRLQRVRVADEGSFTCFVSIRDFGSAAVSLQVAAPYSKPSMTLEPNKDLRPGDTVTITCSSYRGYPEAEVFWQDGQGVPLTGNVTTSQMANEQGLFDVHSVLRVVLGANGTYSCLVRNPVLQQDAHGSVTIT
Experimental: The x-ray crystal structure of an exemplary compound of the disclosure bound to 4lg-B7-H3 was determined. Suitable constructs for B^7H3 expression had been previously established by PROTEROS. Expression of B^7H3 was performed according to previously established protocols. A purification protocol was established and homogeneous protein was produced in preparative amounts. The protein was purified comprising affinity and gel filtration chromatography steps. This procedure yielded homogenous protein with a purity greater 95% as judged from Coomassie stained SDS-PAGE. A 4lg-B7-H3 sequence from amino acid 29-456 was employed. The following sequence corresponds to amino acids 1-534 of 4lg-B7-H3:
The purified protein was used in crystallization trials employing both, a standard screen with approximately 1200 different conditions, as well as crystallization conditions identified using literature data. Conditions initially obtained have been optimized using standard strategies, systematically varying parameters critically influencing crystallization, such as temperature, protein concentration, drop ratio, and others. These conditions were also refined by systematically varying pH or precipitant concentrations.
A cryo-protocol was established using PROTEROS Standard Protocols. Crystals have been flash-frozen and measured at a temperature of 100 K. The X-ray diffraction data have been collected from complex crystals of 4lg-B7-H3 with the ligand of Cpd #200 at the SWISS LIGHT SOURCE (SLS, Villigen, Switzerland) using cryogenic conditions. The crystals belong to space group P 61 2 2. Data were processed using the programs autoPROC, XDS and autoPROC, AIMLESS. […]
Subsequent model building and refinement was performed according to standard protocols with COOT and the software package CCP4, respectively. For the calculation of the free R-factor, a measure to cross-validate the correctness of the final model, about 4.8% of measured reflections were excluded from the refinement procedure (Table 27). […]

Calu-6 cell line [2] = test: Cell associated (bound) fraction of [177Lu]Lu-labeled peptide in Calu-6 cells; format: cell-based, Human; conditions: 1 hour, 37° C.
In short: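 Detached B7-H3-expressing human lung cancer cells at 5 million/mL were exposed for 1 hour at 37 °C to 0.8 μCi of the 177Lu-labelled peptide, which was formulated in 1% PBSA after labelling at 80 °C, pH ~5. Supernatant and two cold washes counted as unbound, and resuspended cells gamma-counted as the cell-associated fraction.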

[3] = target: Biotinylated human 4Ig B7-H3 (human) (UniProt Q5ZPR3); test: SPR 37C; A = KD<=1.0 nM
[4] = target: B7-H3 on Calu-6 cells (human) (UniProt Q5ZPR3); test: 177Lu-labelled peptide on Calu-6 cells, % cell associated fraction; C = >50%
[5] = target: Biotinylated human 4Ig B7-H3 (human) (UniProt Q5ZPR3); test: SPR 25C; A = KD<=1.0 nM
[6] = target: T3, Biotinylated human 4Ig B7-H3 (human, UniProt Q5ZPR3 29-461, limits assumed, biotinylated (site not stated)); test: SPR 25C; C = 10<KD<=100 nM
T3 construct: Protein captured on the SA chip for SPR; also called 4lg-B7-H3; B7-H3 isoform 4Ig
T3 sequence: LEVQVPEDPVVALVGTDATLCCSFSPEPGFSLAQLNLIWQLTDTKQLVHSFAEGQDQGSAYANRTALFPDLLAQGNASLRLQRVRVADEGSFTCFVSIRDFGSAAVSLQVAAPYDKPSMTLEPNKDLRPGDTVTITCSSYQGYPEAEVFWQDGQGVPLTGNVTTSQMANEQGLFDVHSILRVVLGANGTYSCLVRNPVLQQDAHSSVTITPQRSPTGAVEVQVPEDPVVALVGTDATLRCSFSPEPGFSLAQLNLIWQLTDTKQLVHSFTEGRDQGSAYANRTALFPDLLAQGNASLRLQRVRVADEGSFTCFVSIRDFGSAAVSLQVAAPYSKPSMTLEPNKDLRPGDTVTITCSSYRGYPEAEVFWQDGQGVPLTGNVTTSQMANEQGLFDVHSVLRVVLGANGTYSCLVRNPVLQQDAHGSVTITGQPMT

[7] = target: T3, Biotinylated human 4Ig B7-H3; test: SPR 37C; B = 1.0<KD<=10 nM
[8] = target: T3, Biotinylated human 4Ig B7-H3; test: SPR 25C; B = 1.0<KD<=10 nM
[9] = target: T3, Biotinylated human 4Ig B7-H3; test: SPR 37C; D = 100<KD<=300 nM
2Ig B7-H3 = 2Ig B7-H3 (UniProt Q5ZPR3); test: SPR, 37C

CC(=O)N[C@@H](CCC(C)C)C(=O)N[C@@H](Cc1ccc(O)cc1)C(=O)N[C@H]1CSSC[C@@H](C(=O)N[C@@H](Cc2c[nH]c3ccc(F)cc23)C(=O)N[C@@H](Cc2ccccc2)C(=O)N[C@H](C(=O)N[C@H](CCCCNC(=O)CN2CCN(CC(=O)O)CCN(CC(=O)O)CCN(CC(=O)O)CC2)C(N)=O)[C@@H](C)O)NC(=O)[C@H](Cc2ccc(O)cc2)NC(=O)[C@H](C(C)C)NC(=O)[C@H](CC(=O)O)NC(=O)[C@H](CC2CCOCC2)NC(=O)[C@H](CCCCN)NC(=O)CNC(=O)[C@H](C(C)C)NC1=O [compound 200, Ac-hLeu-Y-C-V-G-K-ThpA-D-V-Y-C-5FW-F-Thr-dLys(DOTA)-CONH2] (Ac-[hLeu]YCVGK[Ala(4-THP)]DVYC[Trp(5-F)]FT[dK](DOTA)-NH2; disulfide 3-11)
Kd (human 4lg B7-H3; read-out: SPR KD—25° C., 25° C. flow cell temperature): < 1 nM
Kd (human 4lg B7-H3; read-out: SPR KD—37° C., 37° C. flow cell temperature): 1 to 10 nM
% net internalization (Calu-6 cell line [1]): A (%≤25)
Resolution [Å] (4lg-B7-H3; complex crystals of 4lg-B7-H3 with ligand, parenthesis = highest resolution bin): 2.98 (3.28-2.98) Å
specific hydrogen bonds to 4lg-B7-H3 (4lg-B7-H3; distance of less than 3.5 Å of donor and acceptor atoms): eleven
ligand binding site in 4lg-B7-H3 (4lg-B7-H3; extracellular domain residues 29-456): bound between the Ig-like C2-type 1 and Ig-like V-type 2 domains
% cell associated fraction (Calu-6 cell line [2]): C (%>50)

B1: Cpd 310 (peptide)
peptide: Ac-[hLeu]YC[Tle]GK[Ala(4-THP)]DVYC[Trp(5-F)]F[Val(3-OH)][dK]([PEG4′-DOTA])-OH
modifications: disulfide 3-11 (inferred)
KD [3]: < 1 nM
% cell associated fraction [4]: > 50%
KD [5]: < 1 nM

B2: Cpd 269 (peptide)
peptide: Ac-[hLeu]YCIGK(DOTA)[4Pal]DVYC[Trp(5-F)]F[Pip]-NH2
modifications: disulfide 3-11
KD [6]: 10 to 100 nM

B3: Cpd 303 (peptide)
peptide: Ac-[hLeu]YC[Tle]GK[Ala(4-THP)]DVYC[Trp(5-F)]F[Val(3-OH)][dK](DOTA)-OH
modifications: disulfide 3-11 (inferred)
KD [3]: < 1 nM
% cell associated fraction [4]: > 50%
KD [5]: < 1 nM

B4: Cpd 27 (peptide)
peptide: Ac-[Nle]YCVGKYDVYCWFT[dK](DOTA)-NH2
modifications: disulfide 3-11
KD [7]: 1 to 10 nM
KD [8]: 1 to 10 nM

B5: Cpd 36 (peptide)
peptide: Ac-[Nle]YCVGKYDVYCWF[γGlu][γGlu]-NH2
modifications: disulfide 3-11
SMILES: CCCC[C@H](NC(C)=O)C(=O)N[C@@H](Cc1ccc(O)cc1)C(=O)N[C@H]1CSSC[C@@H](C(=O)N[C@@H](Cc2c[nH]c3ccccc23)C(=O)N[C@@H](Cc2ccccc2)C(=O)N[C@@H](CCC(=O)N[C@@H](CCC(N)=O)C(=O)O)C(=O)O)NC(=O)[C@H](Cc2ccc(O)cc2)NC(=O)[C@H](C(C)C)NC(=O)[C@H](CC(=O)O)NC(=O)[C@H](Cc2ccc(O)cc2)NC(=O)[C@H](CCCCN)NC(=O)CNC(=O)[C@H](C(C)C)NC1=O
KD [9]: 100 to 300 nM

B6: Cpd 523 (peptide)
peptide: Ac-[hLeu]YC[Tle]G[PipAla]K([PEG4′-DPTA])DVYC[Trp(5-F)][(2S,3S)beta‑Me‑Phe][Val(3-OH)][dA]-OH
modifications: disulfide 3-11 (inferred)
KD [3]: < 1 nM
Kd (2Ig B7-H3): 520 nM

B7: Cpd 267 (peptide)
peptide: Ac-[hLeu]YCIGK(DOTA)[4Pal]DVYC[Trp(5-F)]F[Hyp]-NH2
modifications: disulfide 3-11
KD [6]: 10 to 100 nM

B8: Cpd 494 (peptide)
peptide: Ac-[hLeu]YC[Tle]G[PipAla]([PEG4′-DOTA])[Ala(4-THP)]DVYC[Trp(5-F)][(2S,3S)βMePhe][Val(3-OH)][dA]-OH
modifications: disulfide 3-11 (inferred)
KD [3]: < 1 nM
% cell associated fraction [4]: > 50%
Kd (2Ig B7-H3): 370 nM

B9: Cpd 28 (peptide)
peptide: Ac-[Nle]YCVGKYDVYCWFT[dK](DOTA)-OH
modifications: disulfide 3-11
SMILES: CCCC[C@H](NC(C)=O)C(=O)N[C@@H](Cc1ccc(O)cc1)C(=O)N[C@H]1CSSC[C@@H](C(=O)N[C@@H](Cc2c[nH]c3ccccc23)C(=O)N[C@@H](Cc2ccccc2)C(=O)N[C@H](C(=O)N[C@H](CCCCNC(=O)CN2CCN(CC(=O)O)CCN(CC(=O)O)CCN(CC(=O)O)CC2)C(=O)O)[C@@H](C)O)NC(=O)[C@H](Cc2ccc(O)cc2)NC(=O)[C@H](C(C)C)NC(=O)[C@H](CC(=O)O)NC(=O)[C@H](Cc2ccc(O)cc2)NC(=O)[C@H](CCCCN)NC(=O)CNC(=O)[C@H](C(C)C)NC1=O
KD [7]: 1 to 10 nM
KD [8]: 1 to 10 nM

From patent publication US20250296959A1, “B7-H3 TARGETING PEPTIDES AND CONSTRUCTS THEREOF” (Mariana Oncology Inc., priority 2024, published 2025)
